From patent publication US20260008815A1, “CYCLIC PEPTIDE OR SALT THEREOF, AND USES THEREOF” (FUJIFILM Corporation, priority 2023, published 2026)
Bridge positions count the residues as written; N and C are the ends. Ends that are not written are not given here. COCH2 = acetyl group that carries the bridge

Each binder was assayed against T1, Recombinant Human FGFR2 alpha (IIIc) Fc Chimera Protein, CF (R&D systems, 712-FR-050) (human, UniProt P21802 22-377) (assay: ELISA on plate-bound FGFR2-Fc).
T1 construct: bought; not shown: Fc part of the chimera
T1 sequence (P21802 22-377, change not shown): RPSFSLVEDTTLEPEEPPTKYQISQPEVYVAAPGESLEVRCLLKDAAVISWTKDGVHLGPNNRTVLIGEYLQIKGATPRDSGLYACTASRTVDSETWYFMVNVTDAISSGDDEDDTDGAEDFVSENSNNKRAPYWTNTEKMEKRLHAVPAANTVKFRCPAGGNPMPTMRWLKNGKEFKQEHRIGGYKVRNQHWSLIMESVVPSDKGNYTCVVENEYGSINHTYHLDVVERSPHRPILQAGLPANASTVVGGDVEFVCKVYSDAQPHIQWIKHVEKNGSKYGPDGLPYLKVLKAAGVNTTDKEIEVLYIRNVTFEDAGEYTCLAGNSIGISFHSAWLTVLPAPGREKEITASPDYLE
Method in brief: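 Peptide binding scored by category from dose-response of background-corrected luminescence (FGFR-coated minus uncoated wells). Detection via anti-Myc antibody (2 h, room temperature) after 3 h peptide incubation on wells coated with 5 ng FGFR2 alpha (IIIc)-Fc.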

Binder | ELISA luminescence signal at 10 nmol/L peptide, relative to SEQ ID NO: 47 (=1) [ratio]
YCHENYLDPEQYQYFHYFK(COCH2) (thioether 2-19 (inferred)) [cyclic peptide SEQ ID NO: 429] | 0.1 to 0.5
WCFTEGIQSTVQLTYSYLYK(COCH2)L (thioether 2-20 (inferred)) [cyclic peptide SEQ ID NO: 423] | 0.1 to 0.5
PCDPLNLQQWYTAVYQLWHK(COCH2)R (thioether 2-20 (inferred)) [cyclic peptide SEQ ID NO: 426] | 0.1 to 0.5
DCLRQQVYQYLYILFQNDIAK(COCH2)D (thioether 2-21 (inferred)) [cyclic peptide SEQ ID NO: 418] | 0.1 to 0.5
CHENYLDPEQYQYFHYFK(COCH2) (thioether 1-18 (inferred)) [cyclic peptide SEQ ID NO: 431] | 0.1 to 0.5
YCDWVEVANARQLAYYTLYRK(COCH2)K (thioether 2-21) [cyclic peptide SEQ ID NO: 415] | 0.1 to 0.5
VCLDEQQALFHQYYRITRRK(COCH2)V (thioether 2-20 (inferred)) [cyclic peptide SEQ ID NO: 421] | 0.1 to 0.5
YCTQEQAFRQLAYYQIFRRSK(COCH2)S (thioether 2-21 (inferred)) [cyclic peptide SEQ ID NO: 422] | 0.1 to 0.5
LCQIYLYLTALQQGFEDFYPK(COCH2)N (thioether 2-21 (inferred)) [cyclic peptide SEQ ID NO: 417] | 0.1 to 0.5
ECDQAQQVYALIYRYLYQLQK(COCH2)V (thioether 2-21 (inferred)) [cyclic peptide SEQ ID NO: 428] | 0.1 to 0.5
YCEAQPYYFQLYRLWHRQEK(COCH2)P (thioether 2-20 (inferred)) [cyclic peptide SEQ ID NO: 420] | 0.1 to 0.5
YCNYEWDGARRQIAYYRIFLK(COCH2)L (thioether 2-21 (inferred)) [cyclic peptide SEQ ID NO: 414] | 0.1 to 0.5

The next lines start with the values.

ELISA luminescence signal at 10 nmol/L peptide, relative to SEQ ID NO: 47 (=1) [ratio] | Binder
0.1 to 0.5 | ECDTADYPQEWIQDVYQYLYK(COCH2)R (thioether 2-21 (inferred)) [cyclic peptide SEQ ID NO: 427]
0.1 to 0.5 | DCHTREDWQIHHLYQLLYQLK(COCH2)Y (thioether 2-21 (inferred)) [cyclic peptide SEQ ID NO: 419]
0.1 to 0.5 | GCGYTQLHYQHLFAWLHARK(COCH2)V (thioether 2-20 (inferred)) [cyclic peptide SEQ ID NO: 425]
0.1 to 0.5 | VCTQPQQDFELIYQYLYQLAK(COCH2)Q (thioether 2-21 (inferred)) [cyclic peptide SEQ ID NO: 424]
≥ 0.7 | CHENYLDPEQYQYFHYFK(COCH2)Y (thioether 1-18 (inferred)) [cyclic peptide SEQ ID NO: 430]
0.1 to 0.5 | LCTQFPASQRYYFALYRLWHK(COCH2)S (thioether 2-21 (inferred)) [cyclic peptide SEQ ID NO: 416]
